The subject of this data set is ONAC131 (Os12g03040.1) (Oryza sativa subsp. japonica cv. Nipponbare).
[1] abbreviates: relative to SO1, SD 0.03, CELD assay.
[2] abbreviates: relative to SO1, SD 0.01, CELD assay.
Setting [3] is: relative to SO1, SD 0.05, CELD assay.

Read-outs that look alike come from different tables or passages of the source.

For the setting “relative to SO1, CELD assay”, “AATCCACCGCCATAAATCTACGTAACAAGTCA (double strand) [Rice chitinase site II]” registered a binding signal of 0.

Regarding “CACTTGACACGTGGGATCCACGTCACCATCCT (double strand) [Rice glyoxalase I family promoter element]”, the binding signal under setting [1] is 0.29.

Where the note is “relative to SO1, CELD assay”, “GAGATCCGTGCACAGTAAATAACTGTTACA (double strand) [SO1m14]” came in with a binding signal of 0.

With “GAGATCCGTGCACAGTACGTAACTGTTACA (double strand) [SO1 (TaNAC69 high affinity binding site I)]”, the binding signal (CELD reporter assay on streptavidin plate, reference, SD 0.03, pH 7.0, 50 mM KCl, 2 mM MgCl2) was determined as 1.

Consider “GAGATCTGTGCACAGTACGTAACTGTTACA (double strand) [SO1m28]”, for which the binding signal under setting [2] amounted to 0.01.

“GAGGCCCTTAATGTTTACACGTCTCTAGTG (double strand) [SO39m6]” displayed a binding signal under setting [2] of 0.18.

Regarding “GAGGTGTTTAATGTTTACACGTCTCTAGTG (double strand) [SO39 (TaNAC69 high affinity binding site II)]”, the binding signal under setting [3] was found to be 0.93.

For “GATTTGTCTCGTAATTTACACGTAATCTGTGT (double strand) [Rice ZIM family protein promoter element]”, under setting [3], the binding signal is 0.43.

Sequence “GCCAGCGTTCTGTTTCTGTACGTCTCTCTGGG (double strand) [Arabidopsis glyoxalase I family 5'-UTR element]” had a binding signal (relative to SO1, SD 0.03, same sequence as rice chitinase site I) of 1.07.

For the sequence “GCCAGCGTTCTGTTTCTGTACGTCTCTCTGGG (double strand) [Rice chitinase site I]”, the binding signal under setting [1] was 1.07.

For the sequence “TTCCGTAGTTTACTGGATCACGACACACACAC (double strand) [Rice chitinase site III]”, the binding signal (relative to SO1, SD 0.02, CELD assay) is 0.15.
